This series concerns the molecule itself. Nature of the series: AUC.

B1: (His)6-Rv0792c, wild type, GntR family (HutC subfamily) transcription factor from M. tuberculosis (natural protein)
chain: MTSVKLDLDAADLRISRGSVPASTQLAEALKAQIIQQRLPRGGRLPSERELIDRSGLSRVTVRAAVGMLQRQGWLVRRQGLGTFVADPVEQELSCGVRTITEVLLSCGVTPQVDVLSHQTGPAPQRISETLGLVEVLCIRRRIRTGDQPLALVTAYLPPGVGPAVEPLLSGSADTETTYAMWERRLGVRIAQATHEIHAAGASPDVADALGLAVGSPVLVVDRTSYTNDGKPLEVVVFHHRPERYQFSVTLPRTLPGSGAGIIEKRDFA
notes: not shown: His6, N-terminal, kept
As for B1, the “stoichiometry N” value worked out at 2.

Source of the values: publication doi:10.1101/2021.09.17.460839, “Structural and functional characterization of Rv0792c from Mycobacterium tuberculosis: identifying small molecule inhibitors against GntR protein” (bioRxiv, 2021).
